In general, Kd refers to the equilibrium constant for the complex coming apart.

Data set [1] addresses T1, Csa3a (SsCsa3a) (Saccharolobus solfataricus P2, UniProt Q97Y88 1-237).
T1 sequence: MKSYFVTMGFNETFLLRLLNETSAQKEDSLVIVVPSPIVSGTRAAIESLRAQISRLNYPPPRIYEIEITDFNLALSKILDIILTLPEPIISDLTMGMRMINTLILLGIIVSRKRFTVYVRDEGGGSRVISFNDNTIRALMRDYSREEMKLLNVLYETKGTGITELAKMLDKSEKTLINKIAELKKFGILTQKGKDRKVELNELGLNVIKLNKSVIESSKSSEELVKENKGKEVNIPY
Put plainly: fluorescence polarization. Conditions: 37 C 30 min, 18 nM DNA (5.2 ng/uL), +/-10 uM cA4, 2% agarose, FP: 20 mM SPG, 50 mM NaCl, pH 6.5, 50 C (also 21 C), 30 nM DNA, ITC: 10 mM Tris.

The target in data set [2] is T2, Csa3a (SsCsa3a, Sso1445) (Saccharolobus solfataricus, UniProt Q97Y88).
T2 construct: gene csa3; 6×His-tagged Sso1445 (pEXP14-6×His-Sso1445), homodimer; crystal model lacks residues 213–237 of both chains and 160–162, 174–176, 192–195 of chain A
T2 sequence (Q97Y88 1-237): T1 sequence
The data set is described as follows: ITC at […] °C; co-crystal structure at […] Å. Type of data set: binding.

Data set [3] concerns the target T1, Csa3a (SsCsa3a). Put plainly: ITC; 25 C; 250-500 uM cA4; n about 0.6 per dimer; endothermic; EMSA: TAE, 37 C 30 min, 18 nM DNA (5.2 ng/uL), +/-10 uM cA4, 2% agarose; FP: 20 mM SPG, 50 mM NaCl, pH 6.5, 50 C (also 21 C), 30 nM DNA; ITC: 10 mM Tris, 50 mM. Conditions: protein: recombinant; tags: 6xHis (pEXP14-6xHis-Sso1445); chain copies: 2; cyclic, single copy per Csa3a dimer.

Data set [4] concerns the molecule itself. The data set is described as follows: crystal structure; Csa3a co-crystallised with cA4 by hanging drop vapor diffusion at 22 °C; 2.45 Å; space group P212121; one Csa3a dimer in the asymmetric unit.

For 20 bp CAPPa, I-A (2) cas4a promoter, the equilibrium dissociation constant (Kd) in data set [1] (10 uM cA4, 50 C, EMSA: TAE) stood at 2.7 µM; in data set [1] (no cA4, 50 C, non-cooperative, EMSA: TAE), 3.2 µM.
75 bp I-A (2) cas4a CAPPa fragment: the Kd in data set [1] (10 uM cA4, 50 C, cooperative, EMSA: TAE) worked out at 0.21 µM; in data set [1] (no cA4, 50 C, cooperative, Hill about 2, EMSA: TAE), 0.27 µM.
As for `Nc1ncnc2c1ncn2[C@@H]1O[C@@H]2COP(=O)(O)O[C@H]3[C@@H](O)[C@H](n4cnc5c(N)ncnc54)O[C@@H]3COP(=O)(O)O[C@H]3[C@@H](O)[C@H](n4cnc5c(N)ncnc54)O[C@@H]3COP(=O)(O)O[C@H]3[C@@H](O)[C@H](n4cnc5c(N)ncnc54)O[C@@H]3COP(=O)(O)O[C@H]2[C@H]1O` [cA4, cyclic tetra-adenylate], the Kd in data set [2] is 1 to 1.5 µM.

B1: cA4 (cyclic tetra-adenylate) (ssRNA)
RNA: AAAA
modifications: cyclic, 3'-5' linked?
B1: in data set [3], the equilibrium dissociation constant (Kd) was found to be 1.23 µM.

B2: Saccharolobus solfataricus Csa3a (Sso1445) (natural protein, UniProt Q97Y88 1-237, looked up)
chain: T1 sequence
notes: Csa3a (Sso1445) of Saccharolobus (Sulfolobus) solfataricus P2, with an N-terminal CARF domain and a C-terminal winged helix-turn-helix domain; also called SsCsa3a; SsCsa3; source: E. coli BL21 (DE3)-pRIL, purified (heat step at 60 °C, Ni-NTA, Superdex 75)
On to B2, for which, in data set [4], the binding result was “binds”.
